From patent publication US20090227510A1

Target: HLA-A2 (human)
Experiment: HLA-A2 stabilization assay

HLA-A2 stabilizing ability relative to E39: 0.5 fold of E39
Binder: EIWTFSYKV [J65, variant of FBP epitope E39 (H5→F, Y7→T)]
